Measurements taken from a protein production outcome set (Wang et al. 2014).

Assay: label from the status in PepcDB records
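Also: failed if final PepcDB status was selected cloned or expressed and not failed if soluble or beyond.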

Sequence	protein production
MKLAKKMILAAAVLPLTLGTTAALAYGGHGWDKEGDGHCGDRGERGIWKQLDLTAEQQAQLKEMREAGREEMRANRGQSHDAMKALHAQERALVLAADFDQAAAENLAKQMVDQQVTHRVKMMEKRHQMMSILTAEQKAKLQTLQQEKMAECMQDGQHGKGKKHASQLEHHHHHH	not failed
MVAATSQNTFDSPRSPLYNFTMDIRPLSDVAGVILVGGRSRRMGRDKALIPLGGKPLVERVIDAFRPLFERILLVGDRGERFASYGLPVFPDIHPGSALGGLYTGLVRAGTPHVFVSACDVPWPDPRVIARLCSLREGFDVVVPRTVGGSEPLFAVYGTGCLPAMERMLREGNYRIYDFYPEVRTRYVEQAELADLVTPARTFVNVNTPEEFETIRNREEGMAIKAVSFVAKSGTGKTTLLEKVIAELKGRGYRIGVIKHDAHRFDIDHPGKDSHRLAAAGADTMLIASPEKLALVKKYDESPPLDELLATYFGDVDIVLTEGFKKSSLPKIEVHRMERSATLLCRGEEHDPTLVAVASDAALALDVPVFDLNNPAQVADFVERTFLAAGAALEHHHHHH	not failed
MQKNLDSLLENLRAEIDALDNELSDLLDKRLEIALKIALIKQESPIYCPKREQEILKRLSQRDFKHLNGEILTGFYTEVFKISRKFQENALKELKK	failed
MGTIILTWNIQWGRGADGRVDLSRMLAEARAMGSFDVLCLQEVTSGFGHLPGQPGEDQWQELAGALGQAFTLIDGIALERHEGAQIRRFGNAIATRLPVLHVARHALPCPADAGPTMPRMAIEAIVQAPFGPLRVVSTHLEYYSETQRIAQIDALRALHVEGCMRAAHPPTLGPEPTDGPFRPLAQTRATVICGDFNCKPDSKPKRLATVPFSHEAAALYDAWETAHGPTPQPPTFGVHDRTGWTEPAYACDFMLVSEPLKTRVTRVEVNSTTQASDHQPTLLELRDAE	failed
MQEISAYTLIKEKLQAIPNLRHKGILFEKISKQFLQEHDSANEYESIDLWYDWKLRGNERDKGIDIVITTFKQRIHRCAMQIPSK	failed
MTIKTLDISPVGRVEGDLDVRVEIEDGQVVNAWTHAELFRGFEIILRGKDPQAGLIVTPRICGICGASHLTSASWALDTAWNTTVPRNAILARNLGQIVETIQSIPRYFYGLFAIDLTNKKYRSSRFYDEAVRRFAAFTGKSYELGVTISSKPVEIYALFGGQWPHSSYMVPGGVMCAPTLTDITRAWAILEYFRTNWLEPVWLGCSLERYEEIQTYDDFMDWLEADIKHRESDLGFYWRMGLDIGLDRYGAGVGKYVSWGYLPHEDKYQKPTIEGRNAAMIMKSGVYDSFSDTHTLMDHTFARENTTHSWYDEGNADVHPFDRTTKPTQKNTKDFKNAYSWSTAVLHQDFGRLEVGPLARQLVAGGQHGESWQHYDGFILDAFQKMGGASIHLRQLARVHEIVKLYRQAERCLREFVLNDPWYIKPKEKDGRGWGATEASRGSLCHWIDIEGGKIKNYQVIAATTWNVGPRDSEGVRGPIEEALIGTPIEDSRDPVEVGHVARSFDSCLVCTVHAHDAKTGEELARFRTA	failed
AHKYKRAEVVQNALLELSHIATQVSSLEEFYLGVHHHLKQLISADNFFIATLDVNSGAISVPFFADEKDAHPSQLYPEQSLSTLLQQGLTGYVFRTGQTLLCDESKVDELVNAEEIVNLGSPCHLWLGVPIKHEDIVTAVLVVQTYDTNVSYGDIEVELMTFICHHITGVMERLKHQEQLEQAIQQ	not failed
MIRFQPITTSDVQHYKFMEELLVESFPPEEYRELEHLREYTDRIGNFHNNIIFDDDLPIGFITYWDFDEFYYVEHFATNPALRNGGYGKRTLEHLCEFLKRPIVLEVERPVEEMAKRRINFYQRHGFTLWEKDYYQPPYKEGDDFLPMYLMVHG	failed
MRRTLVVPDVLLLGTLLAGLLLLSGCEGDYRPRAVGPIGEITVVMDSSHWTGPSGEALRANVTPWVETLPVSERSFQLRHLELTDERTYERVQDLKNVIIAAPLSDSTNETSFLRRRLSDEAEQAILDGQTAVVPKPNLWRRSQRIYYVAAASPDALAETFQSQGTQIRDTFTEATLQRMDRNMYEDDRRSALEDTLMQRHGFAVNMQSDFQIAVDTTTGSEGFVWLRRLLAQTRREFFVYYVEDVSPDQITPEWIYNTRDSLTRRHLRGNVRGFAKIDYRRPLKTEQRSFLDRYAYDSRGLWYMVAPLGGGNELRPVGGGGPFVNYTFYDQATDRVYMLDGSIFAPDNDKIDLLRQMEVMARTFRTAEGSRSPDASPTAAKLEHHHHHH	failed
MMTTRNGSLRFFNHTFSFYDEATCVVREEELQRELMPRHVSFILDGNRRWAKRDGLTTAQGHEAGTKRIIEIAERIGEETRKEVRVSVIGNKTKIPESLLKEIHEIEEATKATRISISSWQ	failed
MNKHLKIQIMNIHSEREIYSARVLNAPIEIVYEAFANPSYLKNWWGPKGFTNTIHAFDLQPGGKWILTMHGPEKGNYENSSIFKIVEPQKLISWERKSKPLFDMEVEFKKLNNLQTEISFRMTFSTKEDCDKIRSFVEPQNEELRSIRKRNSEHKLIPTCIPRHPHWLVFQSRQ	failed
MAMNLPADNEGKIKLAMSILVTIINDTGVPRNIRRAAANALTHLRDPRLSPAVRAANAISALEEVSQDPNMPFYARTRIWQVITILETVRD	failed
MEKILDNIDKSMNIIISLFTIYNLIRGFWLNKNKKQLEKQREDLQKKLHQQNISNNNNISNSFNTTIHNETNIKNEIIDINQDLKNTLKSRNTSRNIAYIFTIFLFVLSFILYVIHYFKEQFKGYTIADFINSFIPSFEKLTDILTISYKSAIIVLLIINLIIAVLVILISMLKLKLKWRVAVSSLLYGILNYYVLISASSIDSKDIHYSIQEPKLSFIISFLYLMVGFITAFFSNYILYSYLFNSEFEDELFNQTIKRFFIWLALTVLFAFLSFINYHNGLQITLNFIKNLLNLI	failed
MELSSSESLGFSKILKERVKVKPMNKYAILAVLLWSTVASAFKLTLSRLDTISMLFYSSLTSTVIFLLANLKDIKTFSIKANLNSVFFGFINPFLYYLVLFSAYSILPAQEAQALNYTWPIILVIFSSAFLGQRLSERDFLGVIIGFLGALVVGTRGNLSSLHFANPMGDLLALCSAIIWAIYWILNLRDPRKAEVKMMWNFIFGFLYISILGVIEGIKFDPYGVLGAIYVGTFEMGLTFLLWLKALESEEAGKVASLIYLTPVLSLLFISIVVGEKILGSTIVGLALILLGIALSRR	failed
LPAGLYFVGTPIGSARDITLRALDVLASAEVIAAEDTRSLRHLLDIHGVPLDGRRVLAYHDHSGAGAQARLLEALAEGKSVAYASEAGMPLIADPGFELSRAAAEAGHMVTC	not failed
KIMIAALDYDPGDGQMGGQGKGRLALRAGDVVMVYGPMDDQGFYYGELGGHRGLVPAHLLDHMSLHGH	not failed
MSICPHIQQVFQNEKSKDGVLKTCNAARYILNHSVPKEKFLNTMKCGTCHEINSGATFMCLQCGFCGCWNHSHFLSHSKQIGHIFGINSNNGLLFCFKCEDYIGNIDLINDAILAKYWDDVCTKTMVPSMERRDGLSGLINMGSTCFMSSILQCLIHNPYFIRHSMSQIHSNNCKVRSPDKCFSCALDKIVHELYGALNTKQASSSSTSTNRQTGFIYLLTCAWKINQNLAGYSQQDAHEFWQFIINQIHQSYVLDLPNAKEVSRANNKQCECIVHTVFEGSLESSIVCPGCQNNSKTTIDPFLDLSLDIKDKKKLYECLDSFHKKEQLKDFNYHCGECNSTQDAIKQLGIHKLPSVLVLQLKRFEHLLNGSNRKLDDFIEFPTYLNMKNYCSTKEKDKHSENGKVPDIIYELIGIVSHKGTVNEGHYIAFCKISGGQWFKFNDSMVSSISQEEVLKEQAYLLFYTIRQVN	failed
MKKILCAVLLLFTGASWANSDDLETSGDVVHLLLPATALGATLFYEEGHEGSWQLLKAAVSSRVIVEGLKLGVNKDRPDGSGDDSFPSGHTSDSFMAATFIQQRYGWQYGLPAYLAASYVGYTRVESDKHYVEDVLAGAAIGMLAGWYFTEPYKGITVTPLAHNGVYGLYISGQF	failed
MTAENSATPDYRRNVGAVADALLAHPGPIVVLSHENPDGDALGSVLGLSRALRTLGKTVLAPMTVPHYLSFLPQPGELTAPLESWPQGALAAVLDVDNNDPVRVAGADLTQFDGPVVNVDHHGTNLRRADAGVVDPSKPAAAMMVADVIDALGAPWSEAVATPLMLGLNTDTGNFAFDSVSAETFECAARLRAHGARIGWLNDQMRQNPQSYYLLLREVLGKLEFLHGGRVVQTRVDEEMLARAGATWEQVENYVSMLRNAEGAQLAVMAKDYGDRVKFSLRSRGPVSAQNIAVALGGGGHVPAAGATVISSYAEARARLDAAIEAELARVDAQATAE	failed
DQPLAVAGDELAIADQTIDALSAQVEKLRHQQDLSLKQAELLTELSRANLSDIDEIQGVIQKNLDQARALFGCERLVFYYHPRYQPEAMVVQALDLTTQGLIDSKDPHPWGQEDMPSQIVAINDTSGASISNPHRQWLEQHQVKASLTVPLHRDNYPLGLLMAHHCQRPHQWEMRERQFLQQLTEELQTTLDRANLIQERNESAQQAQILKELTLKISAAIN	failed
ARRPMNAFLLFCKRHRSLVRQEHPRLDNRGATKILADWWAVLDPKEKQKYTDMAKEYKDAFMKANPGYR	not failed
MDNLETDRLILINYTLEMIQATINGTEALEKTSGYHVSPDWPGIDFFFYLPYVLENVKKDDKMIKWTRLVVLKTENKIIGEIGGQGNPDETGEIEIGYSIVPDYQNKGYMSEALISMIDWLEHQPVINRIFARCYEQNEASIQVLKHNHFVH	failed
MTVIDDRDMMGAESSELSEAGARDYFELLKPRVMSLVVFTAFAGLVLAPGEINPILGLIAILCIAVGAGASGALNMWYDADIDAVMTRTAKRPIPSGRIAPREALAFGLTLSAFSVVILGLAVNWFSAGLLAFTIFFYAVVYTMWLKRSTPQNIVIGGAAGAFPPMLGWACVTGGVSLDSVILFLIIFLWTPAHFWALALFKMRDYGAVGIPMMPNVAGERSTKNQMIVYAVLTAAAAVAPFFTGLASAGYGIFAAVLSAIFVYCSFDVRRMPEGDEKMLPAKKMFAYSVLYLFAIFSGLLADHFAPALKAVISGVL	failed
MDNTRSVYGIDLGTTYSCIAQVDKFDQAIVLRNFEGDATTPSAVYFEDMDHVVVGKEAKGMLATEPTKTAVFIKRHIGVDDSFDKNTNEFPYHYDPTEISAFILKKLVKDANDLGDNPEPIKDVVITCPAYFGTKERMQTKQAGEIAGLNVLSIINEPTAAAISYGVKTDQKKTVLVYDLGGGTFDVTLINVNGGAIKVIATGGDHHLGGVDWDTALAEYMLAAFNEQNNTSYSFEDRLDLKYELLLLAEDKKKVLTAKQTAKATYQYEGNSARIEISRELFNSLTERKLDETIDATKKVIAIAKEKGYNNIDEILLVGGSSRMPQIKERVDKEFNCDAKLTDPDECVAKGAAIYAMNAAYSQAVRDYEEGESDDKPAPLRGDRTTVVNVTSKTYGTDVIIEGQSMVQNLIFANSSLPTKRIETFTTSIPNQRGVSVKVFESDFTNMETESIVEERFCTLIDDHTLKLSKDWPQGTQISVTYQIDQEGILHGLAYVENDKLEFDLKITGVKCEEELRKSKAIIDKASVE	failed
MRVVALVPGGIGDQILFFPTLDDLKRYYPNAQLDVVVEPRSKAAYRVSKSVNDILTFDYKDRNSLADWGNLVGTIRDREYDVVITVGQSWLVGLFLWLTGIPTRIGYQGKGRSFLTKTVPFKPSQYAAAVYHDLLAPIGITTPTPELEHHHHHH	failed
ALPELRLEQFIITGASKRGWSAWLTAMADDRVIAIVPSVIDVADTSSMLEGLRKRYGGSWPLALWSYQAAEVLQQLGSPAFARLMALMDPMQYLDEPGARLKIPKYLVSASGDDFFAPDHATDYLQRLPGQTSLRVLPNSDHGGVRAHVVTTLVPMVQRIQASL	failed
